We go through four molecules from patent US20180245061A1, “Modified Heterocyclase” (THE UNIVERSITY COURT OF THE UNIVERSITY OF ABERDEEN, priority 2014, published 2018).

For series [1], the target named is Lyngbya sp. LynD heterocyclase, wild type, SEQ ID NO: 1. Description: ITC nucleotide binding (ATP/AMP) to LynD. Also on record: species or system Lyngbya sp. PCC 8106. The settings on record: 20° C., pH 7.4, 5 mM MgCl2, one-site model, stoichiometry set to 1, read-out: Nucleotide KD (ATP). Here is the method:
(§1) Codon optimized full-length LynD (Lyngbya sp. PCC 8106) with an N-terminal TEV protease-cleavable His6-tag was purchased from DNA2.0 in the pJexpress411 plasmid. The protein was expressed in Escherichia coli BL21 (DE3) grown on auto-induction medium {Studier, 2005, Protein expression and purification, 41, 207-234} for 48 h at 20° C. Cells were harvested by centrifugation at 4,000×g, 4° C. for 15 min and re-suspended in lysis buffer (500 mM NaCl, 20 mM Tris pH 8.0, 20 mM imidazole and 3 mM β-mercaptoethanol (BME)) with the addition of complete EDTA-free protease inhibitor tablets (Roche) and 0.4 mg DNase g^−1 wet cells (Sigma). Cells were lysed by passage through a cell disruptor at 30 kPSI (Constant Systems Ltd) and the lysate was cleared by centrifugation at 40,000×g, 4° C. for 20 min. The cleared lysate was applied to a Nickel Sepharose 6 Fast Flow (GE Healthcare) column pre-washed with lysis buffer and protein eluted with 250 mM imidazole. The protein was then passed over a desalting column (Desalt 16/10, GE Healthcare) in 100 mM NaCl, 20 mM Tris pH 8.0, 20 mM imidazole, 3 mM BME. Tobacco etch virus (TEV) protease was added to the protein at a mass-to-mass ratio of 1:10 and the protein digested for 2 h at 20° C. to remove the Hiss-tag. However, removal of the Hiss-tag was not essential for activity and so less vigorous methods for purification may also be used. […]

For series [2], the target named is Lyngbya sp. LynD heterocyclase (SEQ ID NO: 1) variant K409E. Put plainly: ITC nucleotide binding (ATP/AMP) to LynD K409E. The arrangement: species or system Lyngbya sp. PCC 8106. To be noted: 20° C., pH 7.4, 5 mM MgCl2. Here is the method: as §1
In series [3] the target is Lyngbya sp. LynD heterocyclase (SEQ ID NO: 1) variant K409A. Put plainly: ITC nucleotide binding (ATP/AMP) to LynD K409A. Also on record: species or system Lyngbya sp. PCC 8106. The settings on record: 20° C., pH 7.4, 5 mM MgCl2. Here is the method:
as §1

Series [4] has as its target Lyngbya sp. LynD heterocyclase (SEQ ID NO: 1) variant E423R. Put plainly: ITC nucleotide binding (ATP/AMP) to LynD E423R. To be noted: 20° C., pH 7.4, 5 mM MgCl2. The arrangement: species or system Lyngbya sp. PCC 8106. Here is the method: as §1
Series [5] addresses Lyngbya sp. LynD heterocyclase (SEQ ID NO: 1) variant R427E. Description: ITC nucleotide binding (ATP/AMP) to LynD R427E. The settings on record: 20° C., pH 7.4, 5 mM MgCl2. Also on record: species or system Lyngbya sp. PCC 8106. Here is the method: as §1
Series [6] has as its target Lyngbya sp. LynD heterocyclase (SEQ ID NO: 1) variant R636E. Put plainly: ITC nucleotide binding (ATP/AMP) to LynD R636E. Also on record: species or system Lyngbya sp. PCC 8106. To be noted: 20° C., pH 7.4, 5 mM MgCl2. Here is the method:
as §1

Series [7] deals with T1, full-length PatE'4 leader peptide (tryptic fragment of PatE' D2Y, K3E, K4E, R16E).
T1 chain: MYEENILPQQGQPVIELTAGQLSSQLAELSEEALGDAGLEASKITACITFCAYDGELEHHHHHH

Series [8] has as its target T2, minimal leader LAELSEEAL synthetic peptide.
T2 chain: LAELSEEAL

In series [9] the target is T3, PatE' L26R.
T3 peptide: T1 chain with Y2D, E3K, E4K, E16R, L26R
Description: ITC, 20 C. A general note: ITC needs no label: the signal is the heat of the interaction.

The target of another series is T4, PatE' L29R.
T4 construct: Point mutant of PatE'
T4 peptide: T1 chain with Y2D, E3K, E4K, E16R, L29R
Description: ITC, 20 C.

A further series concerns the target T5, PatE' E31R.
T5 construct: Point mutant of PatE'
T5 peptide: T1 chain with Y2D, E3K, E4K, E16R, E31R
Description: ITC, 20 C.

Series [10] deals with the molecule itself. Put plainly: X-ray crystal structures; gel filtration suggested a dimer. (SEC sorts molecules by how far they enter the pores of the column.)
Series [11] addresses T6, PatE' (precursor peptide PatE variant, 64 amino acids, full leader, single core peptide ITACITFC, C-terminal …).
T6 peptide: T1 chain with Y2D, E3K, E4K, E16R
Put plainly: ITC, 20 C, one-site model with stoichiometry set to 1; LynD in the cell, peptide in the syringe.

Series [12] deals with T7, PatE' E32R.
T7 construct: Point mutant of PatE'
T7 peptide: T1 chain with Y2D, E3K, E4K, E16R, E32R
The description is as above.

The target in another series is T8, PatE' C51A.
T8 peptide: T1 chain with Y2D, E3K, E4K, E16R, C51A
Put plainly: X-ray co-crystal structures LynD/ATP/PatE'C51A (2.14 A) and LynD/beta,gamma-imido-ATP/PatE'C51A (3.01 A).

The test system of another series is PatE′. Description: Heterocyclization reaction with PatE′, MS analysis. Type of series: biochemical. To be noted: 2 μM enzyme, 5 mM ATP, 5 mM MgCl2, 16 h at 37° C.; TABLE 2. Here is the method:
(§2) For all heterocyclization reactions, […] PatE′ (and variants,) was incubated with 2 μM enzyme in 150 mM NaCl, 10 mM HEPES pH 7.4, 1 mM TCEP, 5 mM ATP and 5 mM MgCl2 for 16 h at 37° C. Samples were analyzed by ESI or MALDI MS (LCT, Micromass or 4800 MALDI TOF/TOF Analyzer, ABSciex). For cis trans activation studies, 100 μM ITACITFCAYDG synthetic test peptide (Peptide Protein Research Ltd) was reacted with 5 μM heterocyclase enzyme in the presence and absence of 5.5 μM LAELSEEAL synthetic peptide, or 5.5 μM full-length PatE′4 leader peptide. The reaction was carried out in 150 mM NaCl, 10 mM HEPES pH 7.4, 1 mM TCEP, 5 mM ATP and 5 mM MgCl2 for 16 h at 37° C. and analyzed as above. Synthetic peptides were purchased from Peptide Protein Research Ltd.

A further series has as its system PatE′ L26R. Description: Heterocyclization reaction with PatE′ L26R. In kind it is biochemical. To be noted: 2 μM enzyme, 5 mM ATP, 5 mM MgCl2, 16 h at 37° C. Here is the method:
as §2

Series [13] has as its target T6, PatE' (precursor peptide PatE variant, …). Put plainly: ITC, 20 C, one-site model with stoichiometry set to 1; LynD mutant in the cell, peptide in the syringe.
For series [14], the target named is T3, PatE' L26R. Described as above.
A further series deals with PatE′ E32R. Description: Heterocyclization reaction with PatE′ E32R. In kind it is biochemical. The settings on record: 2 μM enzyme, 5 mM ATP, 5 mM MgCl2, 16 h at 37° C. Here is the method:
as §2

In series [15] the target is T7, PatE' E32R. Put plainly: ITC, 20 C, one-site model with stoichiometry set to 1; LynD mutant in the cell, peptide in the syringe.

Substitutions are numbered along the chain they refer to. Numbers in names are those of the source.

Chain of PatE′ (as listed by the source): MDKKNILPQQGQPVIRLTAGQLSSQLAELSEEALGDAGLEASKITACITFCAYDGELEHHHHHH
Chain of PatE′ E32R (as listed by the source, stated change not applied): as the sequence (as listed by the source) above, with E32R counted along it
Chain of PatE′ L26R (as listed by the source, stated change not applied): as the sequence (as listed by the source) above, with L26R counted along it

One may read the Kd as the concentration at which binding is half-saturated. For the molecule `Nc1ncnc2c1ncn2[C@@H]1O[C@H](COP(=O)(O)OP(=O)(O)OP(=O)(O)O)[C@@H](O)[C@H]1O` [ATP], the Kd in [1] amounted to 50.2 µM. For the same molecule, the “Nucleotide KD (ATP)” value in series [2], in [3], in [4], in series [5] and in series [6] was “no binding” throughout.

B1: LynD heterocyclase, full-length (Lyngbya sp. PCC 8106) (enzyme)
chain: MQSTPLLQIQPHFHVEVIEPKQVYLLGEQANHALTGQLYCQILPLLNGQYTLEQIVEKLDGEVPPEYIDYVLERLAEKGYLTEAAPELSSEVAAFWSELGIAPPVAAEALRQPVTLTPVGNISEVTVAALTTALRDIGISVQTPTEAGSPTALNVVLTDDYLQPELAKINKQALESQQTWLLVKPVGSVLWLGPVFVPGKTGCWDCLAHRLRGNREVEASVLRQKQAQQQRNGQSGSVIGCLPTARATLPSTLQTGLQFAATEIAKWIVKYHVNATAPGTVFFPTLDGKIITLNHSILDLKSHILIKRSQCPTCGDPKILQHRGFEPLKLESRPKQFTSDGGHRGTTPEQTVQKYQHLISPVTGVVTELVRITDPANPLVHTYRAGHSFGSATSLRGLRNTLKHKSSGKGKTDSQSKASGLCEAVERYSGIFQGDEPRKRATLAELGDLAIHPEQCLCFSDGQYANRETLNEQATVAHDWIPQRFDASQAIEWTPVWSLTEQTHKYLPTALCYYHYPLPPEHRFARGDSNGNAAGNTLEEAILQGFMELVERDGVALWWYNRLRRPAVDLGSFNEPYFVQLQQFYRENDRDLWVLDLTADLGIPAFAGVSNRKTGSSERLILGFGAHLDPTIAILRAVTEVNQIGLELDKVPDENLKSDATDWLITEKLADHPYLLPDTTQPLKTAQDYPKRWSDDIYTDVMTCVNIAQQAGLETLVIDQTRPDIGLNVVKVTVPGMRHFWSRFGEGRLYDVPVKLGWLDEPLTEAQMNPTPMPF
notes: also called native LynD; cyanobactin heterocyclase LynD
Consider B1, for which the “acceleration of the turnover of the test peptide […] (trans activation, MALDI TOF MS time course)” value is 6.7- and 5.0-fold, respectively in [7]; 6.7- and 5.0-fold, respectively in series [8]. Besides, the binding result with PatE' L26R [9] is “no binding”; with PatE' L29R, “no binding”; in the series with PatE' E31R, “no binding”; in series [10], “binds”; with PatE' C51A it was “binds”. Further, the Kd in [11] came to 1.49 µM; in the series with PatE' E32R [12], 18.4 µM.

B2: LynD Y67D (enzyme)
chain: B1 chain with Y67D
With B2, in the series on PatE′, the “No. of heterocycles, peptide PatE′” value was 2. The “No. of heterocycles, peptide PatE′ L26R” value in the series on PatE′ L26R worked out at 2. Further, the Kd in series [13] turned out to be 12.9 µM; with PatE' L26R [14] it was 15.2 µM.

B3: LynD R399E (enzyme)
chain: B1 chain with R399E
notes: Point mutant of LynD
Regarding B3, the “No. of heterocycles, peptide PatE′” value in the series on PatE′ is 2. The “No. of heterocycles, peptide PatE′ E32R” value with PatE′ E32R is listed as 2. In addition, the Kd in [13] came to 10.7 µM; with PatE' E32R [15], 8.55 µM.
